Target: PABP1;eIF4G1 (88-653) (Homo sapiens;Homo sapiens, UniProt P11940;Q04637 1-636;88-653, |)
Experiment: EMSA

Sequence of PABP1;eIF4G1 (88-653) (P11940 whole entry, chain 1 of 2): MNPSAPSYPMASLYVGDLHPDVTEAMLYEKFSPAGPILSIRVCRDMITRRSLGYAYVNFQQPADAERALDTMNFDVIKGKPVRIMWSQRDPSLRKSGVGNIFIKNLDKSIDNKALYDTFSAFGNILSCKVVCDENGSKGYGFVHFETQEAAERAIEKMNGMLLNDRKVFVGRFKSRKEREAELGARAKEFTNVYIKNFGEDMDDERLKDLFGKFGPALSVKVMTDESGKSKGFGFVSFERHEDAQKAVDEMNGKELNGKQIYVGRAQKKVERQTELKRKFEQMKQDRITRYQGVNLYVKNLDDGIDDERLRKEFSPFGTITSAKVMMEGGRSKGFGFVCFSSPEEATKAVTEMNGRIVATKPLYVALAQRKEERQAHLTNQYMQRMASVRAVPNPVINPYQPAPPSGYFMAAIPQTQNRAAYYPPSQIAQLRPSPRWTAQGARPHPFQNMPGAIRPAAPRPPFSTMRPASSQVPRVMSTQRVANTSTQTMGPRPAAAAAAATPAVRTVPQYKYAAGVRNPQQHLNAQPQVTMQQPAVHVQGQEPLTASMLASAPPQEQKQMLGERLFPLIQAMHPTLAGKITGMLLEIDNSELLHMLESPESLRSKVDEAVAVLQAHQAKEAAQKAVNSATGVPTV
Sequence of PABP1;eIF4G1 (88-653) (Q04637 88-653, chain 2 of 2): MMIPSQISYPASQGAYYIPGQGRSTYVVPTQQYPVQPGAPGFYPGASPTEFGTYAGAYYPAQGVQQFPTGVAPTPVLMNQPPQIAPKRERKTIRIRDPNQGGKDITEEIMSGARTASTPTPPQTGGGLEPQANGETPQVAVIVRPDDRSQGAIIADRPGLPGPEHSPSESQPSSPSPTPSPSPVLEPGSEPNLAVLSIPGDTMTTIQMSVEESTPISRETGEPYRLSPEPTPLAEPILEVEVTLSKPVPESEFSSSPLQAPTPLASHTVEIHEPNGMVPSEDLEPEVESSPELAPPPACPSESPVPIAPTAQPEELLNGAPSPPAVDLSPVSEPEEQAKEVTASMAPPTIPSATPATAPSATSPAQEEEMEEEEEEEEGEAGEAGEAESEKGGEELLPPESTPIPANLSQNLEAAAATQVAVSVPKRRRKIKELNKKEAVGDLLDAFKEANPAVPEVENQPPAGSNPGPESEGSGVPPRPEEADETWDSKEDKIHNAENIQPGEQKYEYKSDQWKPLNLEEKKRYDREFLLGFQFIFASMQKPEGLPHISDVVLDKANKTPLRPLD

Question: Does AAAAAAAAAAAAAAAAAA (ssRNA) [Poly(A)18] bind?
Answer: binds

— PMC8897273 (Journal of molecular biology, 2022)
